Test results reported in US7704695B2, “Screening of compounds for BGT1 transporter activity” (XenoPort, Inc., priority 2005, dated 2010).

Substrate: NCCCC(=O)O
Experiment: hBGT1 direct uptake assay (LC-MS-MS)
Format: cell-based, human
Settings: other: HEK-TREx-hBGT1 cells induced to express hBGT1
Procedure: A modified direct uptake assay was developed to determine the ability of test compounds to be transported into HEK-TREx cells induced to over-express hBGT1. Four concentrations (bracketing the affinity as measured by competition assays) per compound were routinely tested. Non-specific uptake was determined by measuring the uptake into cells not induced to express the transporter (“no tet”).
Typically, four concentrations bracketing the IC50 were tested. The highest test concentration for each compound was made in an Eppendorf tube and diluted into HBSS. The samples were robustly vortexed and centrifuged for 10 minutes at 13,200 rpm to spin down any precipitate. […] Three additional 2-fold dilutions were made in the subsequent rows (B-D or F-G) in HBSS.
An internal standard of 50 μM propranolol in 50:50 ethanol:water was also prepared. To prepare standard curves, several concentrations of the test compounds were diluted into HEK cell extract (prepared from tet-treated, mock-incubated, and extracted cells as described below) with a final internal standard concentration of 5 μM. Standards of 10, 5, 1, 0.5, 0.1, 0.05, 0.01, and 0.005 μM were routinely run for each test compound. […]

B1: hBGT1 (Homo sapiens) (protein)
chain: MDGKVAVQECGPPAVSWVPEEGEKLDQEDEDQVKDRGQWTNKMEFVLSVAGEIIGLGNVWRFPYLCYKNGGGAFFIPYFIFFFVCGIPVFFLEVALGQYTSQGSVTAWRKICPLFQGIGLASVVIESYLNVYYIIILAWALFYLFSSFTSELPWTTCNNFWNTEHCTDFLNHSGAGTVTPFENFTSPVMEFWERRVLGITSGIHDLGSLRWELALCLLLAWVICYFCIWKGVKSTGKVVYFTATFPYLMLVILLIRGVTLPGAYQGIIYYLKPDLFRLKDPQVWMDAGTQIFFSFAICQGCLTALGSYNKYHNNCYKDCIALCFLNSATSFVAGFVVFSILGFMSQEQGVPISEVAESGPGLAFIAFPKAVTMMPLSQLWSCLFFIMLIFLGLDSQFVCVECLVTASIDMFPRQLRKSGRRELLILTIAVMCYLIGLFLVTEGGMYIFQLFDYYASSGICLLFLSLFEVVCISWVYGADRFYDNIEDMIGYRPWPLVKISWLFLTPGLCLATFLFSLSKYTPLKYNNVYVYPPWGYSIGWFLALSSMVCVPLFVVITLLKTRGPFRKRLRQLITPDSSLPQPKQHPCLDGSAGRNFGPSPTREGLIAGEKETHL
notes: expressed in transfected cells; host or cells: HEK-TREx cells (HEK-TREx-BGT1 inducible line), induced with tetracycline/doxycycline and butyrate
**Q.** Which Km does the source give for B1 here?
**A.** 27 µM
